{
  "source": "paper PMC7305985",
  "key": {"[1]": {"biological_target": "Histone H4K5ac peptide, biotinylated (1–23) (UniProt P62805)", "test": "pull-down"}, "[2]": {"biological_target": "Mononucleosomes, Recombinant Human Biotinylated (human) (UniProt P04908)", "test": "pull-down"}, "FLAG-tagged KAP1 ΔRB": {"biological_target": "FLAG-tagged KAP1 ΔRB", "sequence (Q13263 2-835, stated change not applied)": "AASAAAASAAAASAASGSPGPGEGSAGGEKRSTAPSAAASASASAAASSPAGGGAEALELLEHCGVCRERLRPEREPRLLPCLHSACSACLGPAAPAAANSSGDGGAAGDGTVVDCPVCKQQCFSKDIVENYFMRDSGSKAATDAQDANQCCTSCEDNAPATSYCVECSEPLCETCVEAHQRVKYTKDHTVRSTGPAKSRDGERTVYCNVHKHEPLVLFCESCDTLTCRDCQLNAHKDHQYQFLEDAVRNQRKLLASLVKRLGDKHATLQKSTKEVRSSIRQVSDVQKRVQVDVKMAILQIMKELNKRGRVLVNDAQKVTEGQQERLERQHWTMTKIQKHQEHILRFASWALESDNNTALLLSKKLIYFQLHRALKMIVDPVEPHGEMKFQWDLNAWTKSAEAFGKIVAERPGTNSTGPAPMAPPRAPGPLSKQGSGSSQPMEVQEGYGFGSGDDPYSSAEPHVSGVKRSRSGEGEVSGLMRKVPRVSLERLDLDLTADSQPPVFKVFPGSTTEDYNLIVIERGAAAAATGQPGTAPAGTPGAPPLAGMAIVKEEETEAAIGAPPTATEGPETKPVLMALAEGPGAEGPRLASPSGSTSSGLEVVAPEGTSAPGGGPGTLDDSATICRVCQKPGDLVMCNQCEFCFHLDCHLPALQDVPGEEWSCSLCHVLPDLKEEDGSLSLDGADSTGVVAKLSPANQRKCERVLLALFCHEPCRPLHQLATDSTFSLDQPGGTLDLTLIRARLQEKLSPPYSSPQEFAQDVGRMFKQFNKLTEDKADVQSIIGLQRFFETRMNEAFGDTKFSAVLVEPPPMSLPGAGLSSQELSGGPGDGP", "test": "co-IP"}},
  "data": [
    {"substance": "GST-tagged KAP1 PHD-BD (residues 614–835) (from UniProt Q13263 614-835) (domain or fragment)", "values": [
      {"measurement": "percent lower binding relative to unmodified H4", "setting": "[1]", "result": 30, "unit": "%"}
    ]},
    {"substance": "GST-tagged KAP1 PHD-BD E662/663A (from UniProt Q13263 614-835) (domain or fragment)", "values": [
      {"measurement": "percent reduction in binding relative to WT KAP1", "setting": "[2]", "result": 80, "unit": "%"}
    ]},
    {"substance": "endogenous SMAD2 (from UniProt Q15796 1-467) (natural protein)", "values": [
      {"measurement": "percent decrease in binding relative to WT KAP1", "setting": "FLAG-tagged KAP1 ΔRB", "result": 80, "unit": "%"}
    ]}
  ]
}
